Measurements taken from patent US20190134153A1, “IMMUNOMODULATORY EFFECT OF INHALED KINASE INHIBITOR PEPTIDES IN LUNG” (MOERAE MATRIX, INC., priority 2017, published 2019).

How the values were obtained:
Experiment in all cases: Kinase Profiling Assay
Assay type in all cases: biochemical
Conditions in all cases: 100 μM
ROCK-I(h) = ROCK-I(h) (Homo sapiens, UniProt Q13464)
Fms(h) = Fms(h) (Homo sapiens, UniProt P07333)
IRAK1(h) = IRAK1(h) (Homo sapiens, UniProt P51617)
CLK3(h) = CLK3(h) (Homo sapiens, UniProt P49761)
BrSK1(h) = target: T1, BrSK1(h) (Homo sapiens, UniProt Q8TDC3)
T1 sequence (Q8TDC3 1-778): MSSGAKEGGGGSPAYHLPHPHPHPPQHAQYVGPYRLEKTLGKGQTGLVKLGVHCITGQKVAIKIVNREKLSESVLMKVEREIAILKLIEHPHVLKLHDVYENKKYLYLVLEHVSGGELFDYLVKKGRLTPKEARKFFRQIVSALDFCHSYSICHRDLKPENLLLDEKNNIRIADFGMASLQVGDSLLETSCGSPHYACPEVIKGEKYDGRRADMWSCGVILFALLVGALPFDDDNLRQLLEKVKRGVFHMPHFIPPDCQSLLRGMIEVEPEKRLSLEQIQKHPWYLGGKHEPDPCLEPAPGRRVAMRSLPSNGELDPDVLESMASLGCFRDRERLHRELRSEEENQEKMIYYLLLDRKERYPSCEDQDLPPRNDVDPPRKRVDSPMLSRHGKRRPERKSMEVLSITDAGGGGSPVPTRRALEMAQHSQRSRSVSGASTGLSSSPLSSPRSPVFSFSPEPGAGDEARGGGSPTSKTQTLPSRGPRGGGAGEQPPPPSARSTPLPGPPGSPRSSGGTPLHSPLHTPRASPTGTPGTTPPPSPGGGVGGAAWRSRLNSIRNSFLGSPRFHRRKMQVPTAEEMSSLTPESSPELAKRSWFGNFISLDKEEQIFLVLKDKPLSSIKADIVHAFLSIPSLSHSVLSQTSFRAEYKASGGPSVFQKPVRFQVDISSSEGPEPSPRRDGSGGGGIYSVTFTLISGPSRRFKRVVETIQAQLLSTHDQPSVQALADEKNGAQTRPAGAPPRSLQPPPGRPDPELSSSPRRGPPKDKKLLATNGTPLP

MINK(h) = MINK(h) (Homo sapiens, UniProt Q8N4C8)
MSK1(h) = MSK1(h) (Homo sapiens, UniProt O75582)
Flt3(D835Y)(h) = Flt3(D835Y)(h) (Homo sapiens, UniProt P36888, D835Y)
GSK3β(h) = GSK3β(h) (Homo sapiens, UniProt P49841)
DCAMKL2(h) = target: T2, DCAMKL2(h) (Homo sapiens, UniProt Q8N568)
T2 sequence (Q8N568 1-766): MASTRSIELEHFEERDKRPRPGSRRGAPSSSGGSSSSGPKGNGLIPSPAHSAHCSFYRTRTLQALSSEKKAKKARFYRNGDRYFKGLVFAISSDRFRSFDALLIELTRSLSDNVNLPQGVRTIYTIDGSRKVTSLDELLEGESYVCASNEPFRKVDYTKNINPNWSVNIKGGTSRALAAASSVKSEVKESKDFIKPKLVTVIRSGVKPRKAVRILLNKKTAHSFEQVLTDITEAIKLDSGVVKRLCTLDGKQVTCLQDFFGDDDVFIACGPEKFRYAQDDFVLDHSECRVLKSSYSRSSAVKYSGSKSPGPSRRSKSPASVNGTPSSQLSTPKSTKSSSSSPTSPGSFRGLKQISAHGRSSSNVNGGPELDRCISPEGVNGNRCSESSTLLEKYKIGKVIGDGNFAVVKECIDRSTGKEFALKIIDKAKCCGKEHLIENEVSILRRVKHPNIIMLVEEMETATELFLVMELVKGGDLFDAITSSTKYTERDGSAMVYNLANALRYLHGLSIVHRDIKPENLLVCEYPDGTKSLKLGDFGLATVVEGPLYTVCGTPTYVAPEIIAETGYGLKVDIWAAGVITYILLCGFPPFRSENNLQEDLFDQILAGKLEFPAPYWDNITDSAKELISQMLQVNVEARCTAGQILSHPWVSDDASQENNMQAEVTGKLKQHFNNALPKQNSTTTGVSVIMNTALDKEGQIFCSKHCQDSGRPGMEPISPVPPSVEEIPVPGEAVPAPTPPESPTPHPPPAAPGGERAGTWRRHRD

EphA5(h) = EphA5(h) (Homo sapiens, UniProt P54756)
NLK(h) = target: T3, NLK(h) (Homo sapiens, UniProt Q9UBE8)
T3 sequence (Q9UBE8 1-527): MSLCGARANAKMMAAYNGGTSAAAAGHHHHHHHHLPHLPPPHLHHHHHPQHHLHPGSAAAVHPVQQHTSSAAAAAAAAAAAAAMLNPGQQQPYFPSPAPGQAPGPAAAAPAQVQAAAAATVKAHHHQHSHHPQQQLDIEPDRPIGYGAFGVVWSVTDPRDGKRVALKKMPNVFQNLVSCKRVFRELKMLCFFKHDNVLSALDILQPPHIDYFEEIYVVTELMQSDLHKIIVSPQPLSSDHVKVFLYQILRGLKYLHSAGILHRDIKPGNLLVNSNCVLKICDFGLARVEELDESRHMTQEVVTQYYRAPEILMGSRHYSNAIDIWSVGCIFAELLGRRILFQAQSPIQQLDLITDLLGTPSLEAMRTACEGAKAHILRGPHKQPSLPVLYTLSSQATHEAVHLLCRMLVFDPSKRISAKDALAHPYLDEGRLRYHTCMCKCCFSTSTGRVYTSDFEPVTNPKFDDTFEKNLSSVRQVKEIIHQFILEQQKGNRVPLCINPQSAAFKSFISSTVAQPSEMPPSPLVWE

Rsk1(h) = Rsk1(h) (Homo sapiens, UniProt Q15418)
Syk(h) = Syk(h) (Homo sapiens, UniProt P43405)

GSK3β(h), sequence (P49841 whole entry): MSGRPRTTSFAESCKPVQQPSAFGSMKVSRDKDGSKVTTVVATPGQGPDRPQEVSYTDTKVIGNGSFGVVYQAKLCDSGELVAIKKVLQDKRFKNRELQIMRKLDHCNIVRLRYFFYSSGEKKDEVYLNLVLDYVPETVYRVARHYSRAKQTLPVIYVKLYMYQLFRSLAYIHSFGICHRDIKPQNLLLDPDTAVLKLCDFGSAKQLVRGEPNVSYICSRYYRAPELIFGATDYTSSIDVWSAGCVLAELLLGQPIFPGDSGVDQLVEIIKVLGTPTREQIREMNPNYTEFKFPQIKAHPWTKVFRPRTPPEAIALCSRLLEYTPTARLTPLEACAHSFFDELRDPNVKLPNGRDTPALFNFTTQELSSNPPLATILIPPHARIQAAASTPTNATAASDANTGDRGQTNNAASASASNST
MSK1(h), sequence (O75582 whole entry): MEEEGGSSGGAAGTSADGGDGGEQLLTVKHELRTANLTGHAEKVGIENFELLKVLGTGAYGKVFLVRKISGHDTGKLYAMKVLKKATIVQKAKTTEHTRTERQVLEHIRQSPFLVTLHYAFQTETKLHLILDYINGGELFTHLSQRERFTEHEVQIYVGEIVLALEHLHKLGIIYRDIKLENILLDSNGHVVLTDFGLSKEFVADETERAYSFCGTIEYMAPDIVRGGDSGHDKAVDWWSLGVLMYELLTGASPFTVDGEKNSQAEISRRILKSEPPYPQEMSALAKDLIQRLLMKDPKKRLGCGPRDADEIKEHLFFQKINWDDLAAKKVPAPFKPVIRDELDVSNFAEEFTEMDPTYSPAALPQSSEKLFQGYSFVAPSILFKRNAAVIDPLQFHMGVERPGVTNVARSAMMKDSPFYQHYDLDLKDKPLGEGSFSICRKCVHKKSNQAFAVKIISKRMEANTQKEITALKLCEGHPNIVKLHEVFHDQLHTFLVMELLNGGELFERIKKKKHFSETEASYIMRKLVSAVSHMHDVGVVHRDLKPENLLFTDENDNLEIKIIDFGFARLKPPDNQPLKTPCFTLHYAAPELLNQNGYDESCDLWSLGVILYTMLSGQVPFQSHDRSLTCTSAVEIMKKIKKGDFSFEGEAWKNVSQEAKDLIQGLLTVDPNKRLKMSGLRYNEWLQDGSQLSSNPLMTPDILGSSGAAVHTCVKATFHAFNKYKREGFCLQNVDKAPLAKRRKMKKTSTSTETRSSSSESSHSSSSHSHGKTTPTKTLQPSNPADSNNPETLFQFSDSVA
IRAK1(h), sequence (P51617 whole entry): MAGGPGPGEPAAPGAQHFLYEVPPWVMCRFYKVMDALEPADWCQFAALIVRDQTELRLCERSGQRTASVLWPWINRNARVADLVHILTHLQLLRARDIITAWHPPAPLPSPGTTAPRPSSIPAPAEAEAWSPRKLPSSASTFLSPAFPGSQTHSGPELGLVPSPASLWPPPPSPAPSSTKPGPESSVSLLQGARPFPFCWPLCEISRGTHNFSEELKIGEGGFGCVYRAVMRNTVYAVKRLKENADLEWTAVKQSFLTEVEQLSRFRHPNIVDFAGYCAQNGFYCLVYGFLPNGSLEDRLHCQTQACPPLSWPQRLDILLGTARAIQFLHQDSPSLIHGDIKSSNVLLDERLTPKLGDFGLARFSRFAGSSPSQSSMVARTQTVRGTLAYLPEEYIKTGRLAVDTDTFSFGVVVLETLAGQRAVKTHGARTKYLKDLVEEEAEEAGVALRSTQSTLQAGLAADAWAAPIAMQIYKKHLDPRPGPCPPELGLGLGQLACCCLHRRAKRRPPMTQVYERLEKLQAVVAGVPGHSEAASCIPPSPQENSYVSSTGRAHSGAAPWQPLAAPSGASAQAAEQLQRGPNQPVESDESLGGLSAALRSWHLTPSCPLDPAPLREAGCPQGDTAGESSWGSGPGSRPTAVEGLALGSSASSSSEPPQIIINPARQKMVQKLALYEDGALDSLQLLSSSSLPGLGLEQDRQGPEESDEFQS
Rsk1(h), sequence (Q15418 whole entry): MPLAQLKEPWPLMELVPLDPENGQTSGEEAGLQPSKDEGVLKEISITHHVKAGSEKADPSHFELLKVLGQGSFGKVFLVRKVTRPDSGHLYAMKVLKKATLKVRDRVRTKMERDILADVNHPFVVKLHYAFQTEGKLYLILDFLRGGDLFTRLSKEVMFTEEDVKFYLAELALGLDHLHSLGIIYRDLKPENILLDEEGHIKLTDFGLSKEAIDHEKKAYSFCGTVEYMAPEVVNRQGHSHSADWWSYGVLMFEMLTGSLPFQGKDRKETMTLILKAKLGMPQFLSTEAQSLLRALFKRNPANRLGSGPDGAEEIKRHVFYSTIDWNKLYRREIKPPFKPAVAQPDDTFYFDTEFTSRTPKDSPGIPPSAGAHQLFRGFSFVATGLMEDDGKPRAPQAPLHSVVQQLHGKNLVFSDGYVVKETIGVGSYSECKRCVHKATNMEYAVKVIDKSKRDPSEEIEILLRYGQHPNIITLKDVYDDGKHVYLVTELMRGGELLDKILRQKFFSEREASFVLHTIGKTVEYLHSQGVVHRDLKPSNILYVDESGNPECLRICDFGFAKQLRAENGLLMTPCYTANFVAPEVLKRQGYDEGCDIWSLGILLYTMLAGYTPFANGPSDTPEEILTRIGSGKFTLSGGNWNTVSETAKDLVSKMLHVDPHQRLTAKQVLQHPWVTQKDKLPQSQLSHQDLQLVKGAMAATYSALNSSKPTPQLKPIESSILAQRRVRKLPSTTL
CLK3(h), sequence (P49761 whole entry): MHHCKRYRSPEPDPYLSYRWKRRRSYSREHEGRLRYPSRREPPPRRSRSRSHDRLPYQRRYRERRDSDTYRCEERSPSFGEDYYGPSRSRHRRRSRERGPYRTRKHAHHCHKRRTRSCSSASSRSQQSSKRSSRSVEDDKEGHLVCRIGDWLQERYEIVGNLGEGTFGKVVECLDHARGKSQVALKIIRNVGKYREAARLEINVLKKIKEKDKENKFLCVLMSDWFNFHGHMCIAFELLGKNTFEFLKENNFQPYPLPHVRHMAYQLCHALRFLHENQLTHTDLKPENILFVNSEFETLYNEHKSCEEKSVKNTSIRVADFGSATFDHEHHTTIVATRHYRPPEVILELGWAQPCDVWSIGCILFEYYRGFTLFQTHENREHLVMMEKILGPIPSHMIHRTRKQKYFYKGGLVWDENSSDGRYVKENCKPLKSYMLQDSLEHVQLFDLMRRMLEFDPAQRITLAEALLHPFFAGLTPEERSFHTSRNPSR
ROCK-I(h), sequence (Q13464 whole entry): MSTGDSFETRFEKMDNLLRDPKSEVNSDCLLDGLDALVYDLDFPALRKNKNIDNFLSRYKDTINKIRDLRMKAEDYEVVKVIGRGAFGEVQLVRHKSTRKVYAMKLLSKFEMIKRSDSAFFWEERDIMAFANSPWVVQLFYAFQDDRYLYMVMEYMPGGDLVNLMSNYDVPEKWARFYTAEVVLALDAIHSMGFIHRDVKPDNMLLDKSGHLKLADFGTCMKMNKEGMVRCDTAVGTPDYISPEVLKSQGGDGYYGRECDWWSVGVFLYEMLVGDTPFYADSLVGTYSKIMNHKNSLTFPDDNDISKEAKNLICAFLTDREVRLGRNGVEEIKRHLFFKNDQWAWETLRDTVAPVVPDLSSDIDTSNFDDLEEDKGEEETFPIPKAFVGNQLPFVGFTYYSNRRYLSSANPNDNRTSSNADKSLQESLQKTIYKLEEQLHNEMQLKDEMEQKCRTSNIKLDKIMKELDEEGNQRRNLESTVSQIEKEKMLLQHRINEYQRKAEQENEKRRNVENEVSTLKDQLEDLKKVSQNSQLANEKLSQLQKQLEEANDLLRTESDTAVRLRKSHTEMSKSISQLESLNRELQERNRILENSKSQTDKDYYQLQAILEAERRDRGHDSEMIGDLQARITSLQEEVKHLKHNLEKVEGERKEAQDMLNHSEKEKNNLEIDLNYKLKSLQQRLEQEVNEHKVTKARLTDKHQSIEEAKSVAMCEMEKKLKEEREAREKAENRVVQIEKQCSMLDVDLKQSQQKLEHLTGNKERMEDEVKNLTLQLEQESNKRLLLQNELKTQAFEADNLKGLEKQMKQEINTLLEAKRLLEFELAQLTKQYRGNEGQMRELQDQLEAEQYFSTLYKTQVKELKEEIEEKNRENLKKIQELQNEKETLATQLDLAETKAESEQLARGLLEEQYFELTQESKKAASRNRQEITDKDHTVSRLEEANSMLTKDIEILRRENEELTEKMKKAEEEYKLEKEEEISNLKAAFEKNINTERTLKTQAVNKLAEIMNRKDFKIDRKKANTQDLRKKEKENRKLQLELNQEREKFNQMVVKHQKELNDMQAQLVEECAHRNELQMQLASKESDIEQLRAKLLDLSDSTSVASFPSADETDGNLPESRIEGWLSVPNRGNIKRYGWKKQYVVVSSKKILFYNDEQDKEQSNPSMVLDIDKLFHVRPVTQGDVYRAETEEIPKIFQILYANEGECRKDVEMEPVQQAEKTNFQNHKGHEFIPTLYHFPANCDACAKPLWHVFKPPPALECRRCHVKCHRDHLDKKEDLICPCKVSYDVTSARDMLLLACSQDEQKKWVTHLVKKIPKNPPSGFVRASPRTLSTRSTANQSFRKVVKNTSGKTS

Sequence	% activity (ROCK-I(h))	% activity (Fms(h))	% activity (IRAK1(h))	% activity (CLK3(h))	% activity (BrSK1(h))	% activity (MINK(h))	% activity (MSK1(h))	% activity (Flt3(D835Y)(h))	% activity (GSK3β(h))	% activity (DCAMKL2(h))	% activity (EphA5(h))	% activity (NLK(h))	% activity (Rsk1(h))	% activity (Syk(h))
FAKLAARLYRKALARQLGVAA [MMI-0300]	79%	45%	95%	61%	67%	48%	32%	80%	205%	81%	18%	87%	46%	24%
KAFAKLAARLYRKALARQLGVAA [MMI-0400]	73%	37%	93%	84%	76%	52%	28%	71%	202%	70%	24%	90%	54%	9%
HRRIKAWLKKIKALARQLGVAA [MMI-0500]	17%	14%	5%	76%	72%	5%	8%	65%	238%	56%	42%	19%	34%	5%
YARAAARQARAKALNRQLGVA [MMI-0200]	–	92%	101%	76%	93%	–	50%	–	132%	131%	123%	–	–	36%
